Measurements published in the supplement of paper PMC9170038.

System: K4 kissing-loop RNA reporter
Assay: apparent KD of K4 kissing-loop reporter; higher = weaker reporter binding
Settings: Eterna round: R107
Method: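 RNA-MaP round R107: designed RNA switches with theophylline, tryptophan, arginine or FMN aptamers are transcribed on-chip within common flanks. They are titrated with a labelled K4 kissing-loop RNA reporter in RNA-MaP buffer (100 mM Tris pH 7.5, 80 mM KCl, 4 mM MgCl2), without ligand or with the indicated ligand. Median apparent KD per design.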

[1] = input ligand: theophylline 20 uM
[2] = input ligand: tryptophan 2.4 mM
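Note: bound reporter read as fluorescence of individual clusters on recovered sequencing chips by microscopy, with normalized cluster intensities fitted with a binding model.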

| Sequence | apparent KD of K4 kissing-loop reporter (input ligand: FMN 200 uM) [nM] | apparent KD of K4 kissing-loop reporter (input ligand: arginine 13.2 mM) [nM] | apparent KD of K4 kissing-loop reporter (input ligand: none) [nM] | apparent KD of K4 kissing-loop reporter [1] [nM] | apparent KD of K4 kissing-loop reporter [2] [nM] |
| --- | --- | --- | --- | --- | --- |
| UGACUGGACUGAAGGAGCGCGCGAGACAAAGUCUCGAACUGGUAGUGAUGUUAUCAAAUAACGCAGGUAGGUCGCAGUCUAGUCU [ArgBS 12 #SwitchBubble #StaticStem] | 251 | 167 | 255 | 193 | 188 |
| CAUUCAGUGAUGUUGGAAGGCGAGCGGGAUACCAGCGGAGACUCACGCCCUUGGCAGCCCACAUAUCCCAGGUAGAUAAUAGUUC [Same State - Theophylline A (Freestyle 6)] | 237 | 139 | 203 | 189 | 188 |
| AGAAGGAGACUUGCAACGACUCCUUCAGACUAGGAUAUCAGGAAACUGAGAAGGAGUCUACUUGCAGUGAUGUUGCAAGAAUAAU [[F]''-[K]'-[F]'-[F1]-[F2]-[K1]-[K2]_Design3] | 129 | 147 | 130 | 135 | 125 |
| UCCUAGACUUAGCUAGGUAUAUAAUACGAUACCAGUCUAGAGAUAGACCCUUGGCAGCGUAGGCAGUGAUGUUGCCACUAGCUGA [Theo B SS t7a] | 97.6 | 110 | 103 | 111 | 101 |
| GGCGGCCGCGCGCAAGCGCGGCCGGCCGAUACCAGCGCGACGGCGCGCCCUUGGCAGCGGCGCCGAGUGAUGUUCGGCCUGCCGG [#2 Same State - Theophylline A Attempt #16 (HarryS)] | 376 | 447 | 585 | 454 | 482 |
| AGGGAUGUUAAAGGAUAUAGAAAGUGAUGUUAGAAAGUGAGUGAUGUUGAUGUAAGUGAUGAUAUGUUAGAAGGUUAACAAAACG [abc] | 212 | 111 | 192 | 169 | 144 |
| CAAGUCGAAAAGUGAUGUUUUUCAUACGAUACCAGCAACCAGACAUGCCCUUGGCAGCGUCCAUUACGUUUCUGAGCCCGUACAG [theeternabot_exclusion_KL_Theo_A_40] | 360 | 336 | 389 | 388 | 308 |
| UAACUUGCAGUGAUGUUGCAAGAACUGGAUACCAGCAUGGAAACAUGCCCUUGGCAGCCAGAAGGUAUCCUACAUCACAGAUACU [Design2] | 220 | 202 | 214 | 226 | 197 |
| GUGCAGUGAUGUUGCACGAGGAAAGACGAUACCAGCCGUAAAUAAGGCCCUUGGCAGCGUAGGCUAGCAUAAAGCAUGCUAGUCC [Edeson] | 131 | 98.8 | 111 | 98.4 | 78 |
| CACCCAGUCCUCGAUACCAGACUGGCACGUCAAAAGGUCCAGUGAUGUUGAGCCUAACAAGUCCCUUGGCAGCGACCAGUGUAUU [theeternabot_exclusion_KL_Theo_B_30] | 680 | 573 | 729 | 619 | 623 |
| CGGGAAUUAGGUAUCGUCGAAAGCAAGAACCGAGGACCGGUACGGCCGCCACUCGCACCAGUGAUGUUGGUACAUUUGGUAUCCG [theeternabot_sameState_KL_Trp_A_31] | 115 | 112 | 134 | 103 | 132 |
| AGGCACGAGCAAGGAUAUCGAGUAGAGUGAUGUUCUGCCUGGGUUGGCCCGUAAGGGCCUUCCCAGCGAGAAGGUGCUCGUGCCU [#2 Same State - FMN A Attempt #10 (HarryS)] | 233 | 505 | 647 | 679 | 536 |
| UGUCAUGGAAACAUGAACGUUGAAAUAUGACGAGGACCGGUACGGCCGCCACUCGAGUAAUGGUCAGUGAUGUUGACUGGAUUAA [KL-SSTryp-A form1 sub5 #split stat1] | 59.9 | 110 | 81.9 | 103 | 51.9 |
| UGGGUGUAGUGAUGUUAUAUAGAGAGUGAUACCAGUUUAGAGAGGAACCCUUGGCAGCAUAGAAGAGUAUCAUUGGAGGAGGAGG [ExTheophyl.Aw] | 677 | 505 | 696 | 606 | 433 |
| CCAUCGCUAUUCGAUACCAGCUACUUAGUGAUGUUAAGUUUUUACCCACUGUAGGUGGGAAGCCCUUGGCAGCGAAUAGUGAUGG [Theophylline B K4 27] | 240 | 203 | 239 | 151 | 209 |
| GCCGUAGAUUGAAGGAGCGGUGAAUGCAGGUGAGUCCUUUAGAUGUUUAGUGAUGUUAAACACCAGGUAGGUCGCAAUCUACGGC | 235 | 178 | 203 | 200 | 192 |
| GGAUCCACCAGUGAUGUUGGAGAAAACUCCAAGGAUAUGACGAAAGUCAGAAGGUGGUAGACUGGACAAAGUCCGGUGGGAUCCA [FmnA10 G78] | 661 | 141 | 392 | 438 | 88.7 |
| CCAUCGCUAUUCGAUACCAGUCAUAAAAUCUUUGGUUAAAUAAAGGAGUGAUGUUCCCAAGACCCUUGGCAGCGAAUAGUGAUGG [Theophylline B K4 7] | 229 | 227 | 217 | 266 | 213 |
| AGUGAUGUUGUGUUAUGCUAGGGAAGUGAUCGAGGACCGGUACGGCCGCCACUCGAGUGAUGAGUGAGUGAUGUUUGUUUAGGGA [sdsmullin] | 1100 | 480 | 961 | 844 | 490 |
| UGUCAUUGGUCGGCCGCCACUCCAUAAAGAGUGAUGUUCUAAAAGACGGAUCGAAAGAUCUGUCGGAGGACCGGGACCGAUGACU [FiskerMod 4 - Jieux - Same State - Tryptophan B] | 1190 | 555 | 1090 | 549 | 243 |
| GGCAUCCAUGGACAUAGUGAUGUUAUGUACCGAGGACCGGUACGGCCGCCACUCGGCCAUGGAUGCCGCAAUCGGAAACGAUUGC | 868 | 558 | 885 | 667 | 290 |

| Sequence | apparent KD of K4 kissing-loop reporter (input ligand: FMN 200 uM) [nM] | apparent KD of K4 kissing-loop reporter (input ligand: arginine 13.2 mM) [nM] | apparent KD of K4 kissing-loop reporter (input ligand: none) [nM] | apparent KD of K4 kissing-loop reporter [1] [nM] | apparent KD of K4 kissing-loop reporter [2] [nM] |
| --- | --- | --- | --- | --- | --- |
| AGACCUCAGUGAUGUUGAGGUAACACUGAUACCAGCGACUUAAUUCGCCCUUGGCAGCAGUCCACCGAGGUAUCUGAUUAGGUCA [#24 K4 Theophylline A Exclusion] | 171 | 173 | 179 | 273 | 155 |
| UUUCCAGUGAUGUUGGAGAAAACCGAGGAAGGAGCGGACUCUUGUCCAGGUAGGUCGCCUCGUCUCCCAUUGGCAGAGCGGACCC [Enlaonbian] | 232 | 239 | 249 | 574 | 211 |
| GGUUCCUCAGUGAUGUUGAGGUGACCUCGGCAGGAUAUAGGCAUUACUAGAAGGGCCAAAAGAACCCUGUGUAGCGACACAGGGA [Beerma] | 150 | 269 | 329 | 279 | 299 |
| AUUAAUAUCACGGCCGCCACUGAAUAUUGUUUUUAUAUUUAGAAUAAUUGCCAGUGAUGUUGGAUCAGGACCGGGUGAGUUUAUA [JR_SSTryptoB_Sub007] | 544 | 362 | 461 | 377 | 421 |
| GUACACUCUCGAGUGAUGUUCGGUAAUAGAGAGGAUAUCGCUUUUGCGAGAAGGCUCUGAAUGAGGAAACUCGUUCUGUGUGUAC [FMN A 20] | 906 | 686 | 1160 | 858 | 894 |
| AAUUAAUACAGAAGGAGCGUGUAUUUAACUACAAUUAUCUUAGCGAGUGAUGUUCGUUUUACACAGGUAGGUCGCUGUAUAUUUA [JR_ExcArginiB_Sub010] | 201 | 279 | 235 | 262 | 157 |
| AUAAACUUGCAGUGAUGUUGCAAGUAAGACUAGGAUAUCAGGAAACUGAGAAGGAGUCAUCUCCUUCAACUGCAAGAAUGAAGGA [[K1]-[K2]-[F1]-[F2]-[F]'-[K]'-[F]''_Design4] | 147 | 108 | 129 | 104 | 133 |
| UCUGUGUCCGCGGCCGCCACUCGGGACUAAGUGAUGUUUAGUCCUUCAGAAUAAAGAAGUGAUGAGAGGACCGGGCGAUCGCACC [theeternabot_sameState_KL_Trp_B_2] | 100 | 81.9 | 99.6 | 72.3 | 102 |
| AAUGUAUACUGAAGGAGCGAGUAGUGGAAACAUAAACUCAAUGCGAGUGAUGUUCGCAGUACUCAGGUAGGUCGCAGUAAUGGUA [Exclusion Arginine B Gf 8] | 522 | 311 | 537 | 468 | 406 |
| AAACAUUGGUCGGAUACCAGUUAGACCGAUAGGUCAAAACUGGAGUGAUGUUCCUAAAAUAACCCUUGGCAGCCGACCGAUGAAA [MAT - Same State Theophlline B - Mod of Eli - D5] | 954 | 599 | 787 | 905 | 808 |
| AUGAGGAGCAGUGAUCCUACUCCAUGGGAAGGAGCGUAGGAUACUACAGGUAGGUCGCCCAGUGAUGUUGGGCGCGUGCUCUUGG [Isatquesra] | 140 | 130 | 135 | 148 | 150 |
| GGUAGCAUGGCGGCCGCCACUCAUGUAGAUACCUACAUAGUAAGCAGUGAUGUUGCUUUGUGGUUGAGGACCGGGCCAUGCUACC | 167 | 140 | 151 | 161 | 255 |
| AAACAUUGGUCUGAUACCAGUUAGACCGAUAGGUCAAAACUGGAGUGAUGUUCCUAAAAUAACCCUUGGCAGCAGACCGAUGAAA [MAT - Same State Theophlline B - Mod of Eli - D4] | 3640 | 285 | 596 | 439 | 552 |
| UUGGUCUUUUAAGGAUAUCAUACUCCACUGAGCGAGUGAUGUUCGCUCCUGUUACGCCUGGGACCGUGAGAAGGUAAAGUACCGU [theeternabot_sameState_KL_FMN_B_5] | 149 | 138 | 163 | 147 | 137 |
| UGUGGAGAAUAUGAUACCAGCAGAGAGAGAGAGGAAGUAUAGUGAUGUUAUAUGAGAGAAUGCCCUUGGCAGCAUAAGAAGAAGG [SSTheophylB.C] | 144 | 119 | 140 | 216 | 192 |
| AAUUCUUAUCUUAGUAGAUUUCUAAUUAAACGAGGACCGGUACGGCCGCCACUCGGUUAUGAGUGAUGUUCAUGGAAUUACAUAA [JR_SSTryptoA_Sub018] | 285 | 486 | 467 | 486 | 172 |
| GCGCGUCAUGUCAGCGGUGACUAUGUCGAUACCAGCGCCGCAAGGCGCCCUUGGCAGCGACGCGCUGGAGUGAUGUUCCGACGGC [#2 Exclusion - Theophylline A Attempt #9 (HarryS)] | 144 | 153 | 148 | 159 | 129 |
| UUAGAUGAUUCAUCAAGAUUGAUGAGGAAACGAGGACCGGUACGGCCGCCACUCGAGUGAUGUUCGAGAACCUCAUCAAUCAAUU [AK4.4 Exc Tryptophan A] | 162 | 150 | 154 | 154 | 333 |
| CCUGCUACGUAAGGAUAUGGAAAUGAGUGAUGUUUAGAGAUAUGGUCCAGGUUUAGUCAUCAUAGACCAGAAGGUACAUCGGGCG [theeternabot_exclusion_KL_FMN_B_8] | 825 | 321 | 588 | 364 | 400 |
| AAGGCCAGUGAUGUUGGCUUAACCUUCGAUACCAGAACCGAUCGUUUCCCUUGGCAGCGAACACAAUACCUCACAGCGUUAAGUA [theeternabot_sameState_KL_Theo_A_8] | 125 | 134 | 125 | 149 | 114 |
| AGAGAUAUAUGAGGAUAUGAGAUAGUUAAUGAGUGAGUUUUAGUGUUGUUUGGUUAGUGAUGUUAUUUAGAAGGCGUGAGUGAUG [grrfullin] | 97.7 | 66.5 | 70.2 | 80 | 65.7 |
